In the data set the target is T1, Rap1 (Naumovozyma castellii, UniProt Q96VU6 1-826).
T1 sequence: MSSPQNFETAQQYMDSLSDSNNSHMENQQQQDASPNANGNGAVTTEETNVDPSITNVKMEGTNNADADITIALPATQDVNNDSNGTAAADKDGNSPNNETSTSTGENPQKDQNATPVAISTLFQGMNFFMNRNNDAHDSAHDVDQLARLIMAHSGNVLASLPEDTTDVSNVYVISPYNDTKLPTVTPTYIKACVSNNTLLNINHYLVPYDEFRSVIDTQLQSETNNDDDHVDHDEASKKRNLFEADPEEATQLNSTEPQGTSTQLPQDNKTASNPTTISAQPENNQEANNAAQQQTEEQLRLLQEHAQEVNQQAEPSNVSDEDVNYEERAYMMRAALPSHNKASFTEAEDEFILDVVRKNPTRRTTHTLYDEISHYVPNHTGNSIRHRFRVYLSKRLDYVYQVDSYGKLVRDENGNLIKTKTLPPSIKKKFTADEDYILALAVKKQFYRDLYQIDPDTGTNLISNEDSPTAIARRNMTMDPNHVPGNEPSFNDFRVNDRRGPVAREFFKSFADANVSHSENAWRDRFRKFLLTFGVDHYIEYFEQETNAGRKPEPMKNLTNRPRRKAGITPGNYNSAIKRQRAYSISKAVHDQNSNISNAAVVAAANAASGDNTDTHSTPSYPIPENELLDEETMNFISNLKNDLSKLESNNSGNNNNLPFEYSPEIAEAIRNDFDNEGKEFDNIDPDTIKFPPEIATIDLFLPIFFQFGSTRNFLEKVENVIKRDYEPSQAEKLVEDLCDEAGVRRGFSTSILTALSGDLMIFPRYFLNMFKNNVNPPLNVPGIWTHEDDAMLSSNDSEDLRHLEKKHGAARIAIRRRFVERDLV
The data set can be described thus: EMSA; EMSA: 10 fmol probe, 1.5 ug competitor mix (E. coli DNA, salmon sperm DNA, yeast tRNA), 1x lambda-exonuclease buffer (67 mM glycine-KOH pH 9.4, 2.5 (unit not given) MgCl2, BSA 50 ug/ul as printed), 8% glycerol, 15 ul, 25 C 15 min; gel 6% in 1x TBE at 4 C. The note with it: protein: recombinant; tags: N-terminal 6xHis; label: 32P 3'-deoxy-ATP added to 3' end of C-strand; 3' overhang 9 nt; other end blunt. For orientation: A gel shift assay detects complexes by their altered migration in electrophoresis.

B1: D17S9m (mixed)
DNA 1: GTCACACGTCACACTCTGGGACTCTCCGTGTCTGGGTGTC
DNA 2: ACACGGAGAGTCCCAGAGTGTGACGTGTGAC
modifications: 5'-phosphate on C-strand (DEPA substrate)
Regarding B1, the binding result is reported as “no binding”.
